The target of assay [1] is SARS-CoV-1 Receptor Binding Domain (RBD) protein (SARS-CoV-1, UniProt P59594 306-527). Briefly: SPR, scFv captured via anti-V5, RBD as analyte. In general terms: In SPR one partner is held on a chip, and binding of the other changes the refractive index at the surface.
For assay [2], the target named is MERS Receptor Binding Domain (RBD) protein (MERS coronavirus, UniProt K9N5Q8 367-606). Briefly: SPR, scFv captured via anti-V5, RBD as analyte.

Where a chain is given by its changes, count along the chain named.

B1: COVID19_P07_B08 (scFv, V domains shown)
VH: EVQLVESGGGLVQPGGSLRLSCAASGFTFDDYAMHWVRQAPGKGLEWVSVISGSGRNTYYADSVKGRFTISRDNSKNTLYLQMNSLRAEDTAVYYCVTNMDNSRDYFPHYFHDMDVWGQGTLVTVSS
VL: not shown
On to B1, for which the binding result in assay [1] and in assay [2] was “no binding (tested: up to 300 nM)” in each case.

B2: COVID19_P07_D05 (scFv, V domains shown)
VH: B1 VH with D30R, D31S, S49A, G53H, S54D, G55A, R56S, T58K
VL: not shown
Turning to B2, the binding result in assay [1] and in assay [2] was “no binding (tested: up to 300 nM)” each time.

B3: COVID19_P07_H05 (scFv, V domains shown)
VH: B1 VH with D30S, D31S, A33G, V37I, S52T, S54D, T58K, Y59F
VL: not shown
Consider B3, for which the binding result in assay [1] and in assay [2] was “no binding (tested: up to 300 nM)” in each case.

B4: COVID19_P07_G08 (scFv, V domains shown)
VH: B1 VH with D30S, D31S, V50A, R56G, N57S
VL: not shown
In the case of B4, the binding result in assay [1] and in assay [2] was “no binding (tested: up to 300 nM)” each time.

B5: COVID19_P07_H06 (scFv, V domains shown)
VH: EVQLVESGGGLVQPGGSLRLSCAASGFTFSSYGMHWIRQAPGKGLEWVSAVSASGDRTHYADSVKGRFTISRDNSKNTLYLQMNSLRAEDTAVYYCVTNLDNSRDYFPHYFHDMDVWGQGTLVTVSS
VL: not shown
For the molecule B5, the binding result in assay [1] and in assay [2] was “no binding (tested: up to 300 nM)” throughout.

B6: COVID19_P07_F05 (scFv, V domains shown)
VH: B1 VH with D30S, D31N, V50G, G53S, S54G, R56S, N57G, Y59H
VL: not shown
As to B6, the binding result in assay [1] and in assay [2] was “no binding (tested: up to 300 nM)” each time.

B7: COVID19_P08_B05 (scFv, V domains shown)
VH: B1 VH with D30S, D31S, A33G, V50A, R56G, N57T
VL: not shown
Turning to B7, the binding result in assay [1] and in assay [2] was “no binding (tested: up to 300 nM)” throughout.

B8: COVID19_P07_D10 (scFv, V domains shown)
VH: B1 VH with V50A, I51V, G53T, S54T, R56G, N57S
VL: not shown
As for B8, the binding result in assay [1] and in assay [2] was “no binding (tested: up to 300 nM)” each time.

B9: COVID19_P07_H03 (scFv, V domains shown)
VH: B1 VH with D30S, D31S, V50A, G53R, R56D, N57S, T58A
VL: not shown
As to B9, the binding result in assay [1] and in assay [2] was “no binding (tested: up to 300 nM)” in each case.

B10: COVID19_P07_E03 (scFv, V domains shown)
VH: B5 VH with T28I, Y32F, I37V, V51I, A53D, R57A, H59Q, L100M
VL: not shown
With B10, the binding result in assay [1] and in assay [2] was “no binding (tested: up to 300 nM)” in each case.

B11: COVID19_P08_A10 (scFv, V domains shown)
VH: B1 VH with T28I, D30N, A33G, V50A, R56G
VL: not shown
For the molecule B11, the binding result in assay [1] and in assay [2] was “no binding (tested: up to 300 nM)” in each case.

B12: COVID19_P07_E10 (scFv, V domains shown)
VH: B1 VH with D30S, D31S, A33G, S49A, G53Y, S54D, R56S, T58K
VL: DIVMTQSPLSLPVTPGEPASISCRSSQSLLHSNGYNDLDWYLQKPGQSPQLLIYGGSNGASGVPDRFSGSGSGTDFTLKISRVEAEDVGVYYCMQALQTPLTFGGGTKVEIKR
With B12, the binding result in assay [1] and in assay [2] was “no binding (tested: up to 300 nM)” in each case.

The values are drawn from patent US11053304 (CENTIVAX, dated 2021).
